From patent publication US20110307974A1

T1: APC10 (AT2G18290) fused at its N-terminus with the traditional TAP tag or with the GS tag (Arabidopsis thaliana) (UniProt Q9ZPW2)
T1 sequence: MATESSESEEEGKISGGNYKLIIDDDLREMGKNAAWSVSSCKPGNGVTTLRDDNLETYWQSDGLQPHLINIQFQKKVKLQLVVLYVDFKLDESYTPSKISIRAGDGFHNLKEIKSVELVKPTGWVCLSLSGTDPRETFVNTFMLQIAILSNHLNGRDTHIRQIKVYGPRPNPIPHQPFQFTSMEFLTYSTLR


Each molecule was assayed against T1, APC10 (AT2G18290) fused at its N-terminus with the traditional TAP tag or with the GS tag (Arabidopsis thaliana) (assay: TAP purification with tagged APC10 as bait from Arabidopsis cell suspension culture, MALDI-TOF/TOF MS identification).

Molecule | Found/6 exp (of 6 experiments)
APC2 (AT2G04660) (from UniProt Q8H1U5 1-865) | 3
APC4 (AT4G21530) (from UniProt O65418 1-777) | 6
APC7 (AT2G39090) (from UniProt Q8VY89 1-558) | 6
APC8 (AT3G48150) (from UniProt Q9STS3 1-579) | 6
CCS52B (AT5G13840) (from UniProt Q8LPL5 1-481) | 1
CDC16 (AT1G78770) (from UniProt B3DNN5 1-543) | 6
CDKA; 1 (AT3G48750) (from UniProt P24100 1-294) (enzyme) | 1
RNase L inhibitor protein, putative (AT4G19210) (from UniProt Q8LPJ4 1-605) | 2
eukaryotic translation initiation factor 3 subunit 8 (AT3G56150) (from UniProt O49160 1-900) | 1

The next lines start with the values.

Found/6 exp (of 6 experiments) | Molecule
6 | APC1 (AT5G05560) (from UniProt Q9FFF9 1-1678)
6 | APC5 (AT1G06590) (from UniProt Q8H1U4 1-916)
4 | CDC27a (AT3G16320) (from UniProt Q06AN9 1-717)
6 | CDC27b (AT2G20000) (from UniProt Q8LGU6 1-744)
3 | UVI4 (AT2G42260) (from UniProt O48533 1-259)
2 | UVI4-like (AT3G57860) (from UniProt Q9M2R1 1-243)
2 | expressed protein (AT4G25550) (from UniProt Q8GXS3 1-200)
1 | phosphoprotein-related (ELF8) (AT2G06210) (from UniProt B5X0I6 2-1091)
4 | SAMBA (AT1G32310) (protein) MNGASPAHSLVSTTAVAGGGGSSGAAAGLDDFHFPPDIPSMQERKDEAMRVLKADLMTELDKEVKSLEEDSWMFEGPRSRIHLISRRGNFLKKGGEVKLW
